Laboratory results as given in the nanobody polyreactivity screen of Harvey et al. (2022).

Experiment: yeast display, Sf9 membrane polyspecificity reagent, FACS + sequencing; frameworks hold sequencing errors
Summary of the method: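 Nanobodies from a synthetic yeast display library (Saccharomyces cerevisiae BJ5465), induced 36–48 hours with galactose, were stained 1 hour at 4 °C with 10% biotinylated, detergent-solubilized Sf9 membrane reagent, enriched on streptavidin microbeads, then FACS-sorted. Anti-HA (expression) and streptavidin (reagent binding) fluorescence set low and high (top ~1%) gates. Polyreactivity labels come from the gate of origin. Genes were colony-PCR amplified, MiSeq 2 × 250 sequenced and filtered by CDR length.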

Sequence | polyreactivity (PSR sort gate)
QVQLVESGGGLVQAGGSLRLSCAASGSIFYRYAMGWYRQAPGKERELVAVISTGGSTYYADSVKGRFTISRDNAKNTVYLQMNSLKPEDTAVYYCNVLYYSRYAPYGRYGYWGQGTQVTVSS | high polyreactivity
QVQLVESGGGLVQAGGSLRLSCAASGRTFVYYAMGWYRQAPGKEREFVATITSSGGSTYYADSVKGRFTISRDNAKNTVYLQMNSLKPEDTAVYYCSASPYIRYSKVSKYYYWGQGTQVTVSS | high polyreactivity
QVQLVESGGGLVQAVGSHRLSCAASGSIFFWYTMGWYRQPPGKERELVATITGSGSSTTYADSVKGRFTISRDNAKNTVYLQMNSLKPVDTAVYYCAAADIIDHSFPYDYWGQGTQVTVSS | low polyreactivity
QVQLVESGGGLVQAGGSLRLSCAASGLIQPYYTMGWYRQAPGKERELVAAIRRTTGSTFYADSVKGRFTISRDNAKNTVYLQMNSLKPEETAVYYCNVRRTPYSHWTGGGMDYWGQGTQVTVSS | high polyreactivity
QVQLVESGGGLVQAGGSLRLICAASGSIFRPNAMGWYRQAPGKERELVAAITWSGDSTYYADSVKGRFTISRDNAKNTVYLQMNSLKPEDTAVYYCAADFTYQGSSANDYWGQGTQVTVSS | low polyreactivity
QVQLVESGGGLVQAGGSLRLSCAASGSTLGANAMGWYRQAPGKERELVAAISISDGDTYYADSVKGRFTISRDYAKNTVYLQMNSLKPEDTAVYYCAADYWFQYRWYDYWGQGTQVTVSS | high polyreactivity
QVQLVESGGGLVQAGGSLRLSCAAYSYVMGWYRQAPGKERELVAAISQSGGSTYYADSVKGRFTISRDNAKNTVYLQMNSLKPEDTAVYYCAARREPYQYNQYYSWGQGTQVTVSS | high polyreactivity
QVQLVESGGGLVQAGGSLRLSCAASGSILDTNAMGWYRQAPGKERELVARIDIDGSTNYADSVKGRFTISRDNAKNTVYLQMNSLKPEDTAVYYCAADAERHAPKFTYGTYDYWGQGTQVTVSS | low polyreactivity
QVQLVESGGGLVQAGGSLRLSCAASLRIFYSNAMGWSRQAPGKERELVAAISSSGGITYYADSVKGRFTISRDNAKNTVYLQMNSLKPEDTAVYYCAVDSRHYIRAFDHWGQGTQVTVSS | low polyreactivity
QVQLVESGGGLVQAGGSLRLSCAASGCTSTSNAMGWYRQAPGKERELVALISSGGSTYYAVSVKGRFTISRDNAKNTVYLQMNSLKQEDTAVYYCAARRGTGSYSYRYPYGYDYWGQGTQVTVSS | low polyreactivity
QVQLVESGGGLVQAGGSLRLSCAASGSIFVDNAMGWYRQATGKERELVAAISASGVTTYYADSVKGRFTISRDNAKNTVYLQMNSLKPEDTAVYYCNADYGSDDDVVRYDYWGQGTQVTVSS | low polyreactivity
QVQLVESGGCLVQAGGSLRLSCAASGSIFKGYAMGWSRQAPGKERELVAAITIDGSTYYADSVKGRFTISRDNAKNTVYLQMNSLKPEDTAVYYCAAVYLWYGSWPLHFAAYDYWGQGTQVTVSS | low polyreactivity
QVQLVESGGGLVQAGGSLRLSCAASGSTFQHYAMGWYRQAPGKERELVAAITHTGGSTYYADSVKGRFTISRDNAKNTVYLQMNSLKPEDTAVYYCATVGRRYGYPGYYWGQGTQVTVSS | low polyreactivity
QVQLVESGGGLVQAGGSLRLSCAASGSTFVGNSMGWYRKAPGKERELVAAISGSAGRTYYADSVKGRFTISRDNAKNTVYLQMNSLKPEDTAFYYCNKRYRGGVVYSRYDYWGQGTQVTVSS | low polyreactivity
QVQLEESGGGLVQAGGSLRLSCAASGFTFPWNVMGWYRQAPGKEREFVAAISKSAGSTFYADSVKGRFTISRDNAKNTVYLQMNSLKPEDTAVYYCAKPRVPGVHVQEMYYWGQGTQVTVSS | low polyreactivity
QVQLVESGGGLVQAGGSLRLSCAASGSIFTVYGMGWYRQAPGKERELVAAISRSGGSTYYADSVKGRFTISRDNAKNTVYLLMNSLKPEDTAVYYCAADVYRTWFWWFDYWGQGTQVTVSS | high polyreactivity
QVQLVESRGALVQAGGSLRLSCAASGSIFSRYAMGWYRQAPGKERELVAAIRWTDSSTYYADSVKGRFTISRDHAKNTVYLQMNSLKPEDTAVYDCAKVYEGGSNKVDYWGQGTQVTVSS | low polyreactivity
QVQLVESGGGLVQAGGSLRLSCAASGSTFTNYAMGWYRQAPGKEREFVAAITFRGGRTYYADSVKGRFTISRDNAKNTVYLQMNSLKPEDTAVYYCNKRTSPKRFDYWGQGTQVTVSS | high polyreactivity
QVQLVESAGGLVQAGGSLRLSCAASGSTFPFYAMGWYRPAPGKERELVAAISASGVRTYYADSVKGRFTISRDNAKNTVYLQMNSLKPEDTAVDYCNRVYSTSRITQYEFDYWGQGTQVTVSS | low polyreactivity
QVQLVESGGGLVQAGGSLRLSCGASGFTFRPYAMGWYRQAPGKERELVAAITSGDSTNYADSVKGRFTISCDNAKNTVYLQMNSLKPEDTAVYYCAADSTGRPSVSYDYWGQGTQVTVSS | low polyreactivity
QVQLVESGGRLVQAGASLRLSCDASGRIFQWYAIGWYRQAPGKVRELVAAITSGSSTYYADSVKGRFTISRDNAKNSVYLQMNSLKPEDTAVYYCAAEAVYVSSWYDDYYYFRYDYWGQGTQVTVSS | high polyreactivity
QVQLVESGGGLVQAGGSLRLSCAASGIIFWWYAMGWYRQAPGKEMELVAAISGTGGSTYYADSVKGRFTISRDNAKNTVYLQMNSLKPEDTAFYYCAARGKSSSYYDYDYWGQGTQVTVSS | low polyreactivity

Sequence | polyreactivity (PSR sort gate)
QVQLVESGGGLVQAGGSLRLSCAASGITFDSNAMGWYRQAPGKERELVAAISASGGRTYYADSVKGRFTISRDNAKNTVYLQMNSLKPEDTAVYYCNARYYVKHPLPYDYWGQGTQVTVSS | low polyreactivity
QVQLVESGGGLVQAGGSLRLSCAASGSIFGYYAMGWYRQAPGKERELVAAITTRGGRTYYADSVKGRFTISRDNAKNTVYLQMNSLNPEDTAVYYCAARTGRGRYDYWGQGTQVTVSS | high polyreactivity
QVKLVETGGGLVQAGGSLRLSCAASGFIFYKYAMGWYRQAPGKERELVASITSGGITNYADSVKGRFTISRDNAKNTVYLQMNSLKPVDTAVYYCNVRWYSRWLITTDYNYWGQGTQVTVSS | high polyreactivity
QVQLVESGGGLVQAGGSLRLSCAASGSIFYWYAMGWYRQAPGKERELVAAIDISDDTYYADSVKGRFTISRDNAKNTVYLQMNSLKPEDTAFYYCAARNTRWFYEYDWGQGTQVTVSS | high polyreactivity
QVQLVESGGGLVQAGGSLRLSCAASGFIFSWNAMGWYRQAPGKERELVAAITNRGGSTYYADSVKGRFTISRDNAKNTVYLQMNSLKPEDTAVYYCAKRSSRWGRTPYDYWGQGTQVTVSS | high polyreactivity
QVQLVESGGGLVQAGGSLRLSCAASGRTFPYYAMGWYRQAPGKERELVAAISSSGGGTYYADSVKGRFTISRDNAKNTVYLQMNSLKPEDTAVYYCNAVSYYQDSFYYWGQGTQVTVSS | high polyreactivity
QVQLVESGGGLVQAGGSLRLSCAASGFTFTKYAMGWYRQAPVKERELVADITSGTSTYNADSVKGRFTISRDNAKNTVYLQMNSLKPEDTAVYYCAAPLYGRYSYGYWGQGTQVTVSS | high polyreactivity
QVQLVESGGGLVQAGASIRLSCAASGSTFYTYDMGRYIQAPGKERELVAVITPRSGTTSYADSVKGRFTISRDYAKNTVYLQMNSLKPEDTAVYYCNVYIPYSYGEYDYWGQGTQVTVSS | high polyreactivity
QVQLVESGGGLVQAGGSLRLSCAASGRIIYGNTMGWYRQAPGKEREFVATITRSGGSTYYADSVKGRFTISRDNAKNTVYLQMNSLKPEDTAVYYCNAQPSVYYGRWGLNYVYWGQGTQVTVSS | high polyreactivity
QVQLVESGGGLVQAGGSLRLSCAASGSTYAYAMGWYRQAPGKEREFVAAITRSGGSTYYADSVKGRFTISRDNAKITVYLQMNSLKPEDTAVYYCRGNSTSWRGSQMDYWGQGTQVTVSS | high polyreactivity
QVQLVESGGGLVQAGGSLRLSCAAYGRIFAYYTMGWYRQAPGKERELVAAINQSGGSTYYADSVKGRFTISRDNAKNTVYFQMNSLKPEDTAVYYCAAKPYSLYARRYAYDYWGQGTQVTVSS | low polyreactivity
QVQHVESGGGLVQAGGSLRLSCAASGRIFSGYAMGWYRQAPGKERELVAAINRSGGSTYYADSVKGRFTISRDNAKNTVYLQMNSLKPDDTAVYYCAADKSDVYGYFRQSESYGYWGQGTQVTVSS | low polyreactivity
QVQLVESGGGLVQAGGSLRLSCAASGFTFAWNAMGWYRQAPGKERELVATIDVSGGSTYYADSVKGRFTISRDNAKNTVYLQMNILKPEDTAVYYCAADELPEGGYDYWGHGTQVTVSS | low polyreactivity
QVQLVESGGGLVQAGGSLRLSCAASGFTFGNNGMGWYRQAPGKERELVATISWSGGSTYADSVKGRFTISRDNAKNTVDLQMNSLKPEDTAVYYCAARYFVYYLEVDYWGQGTQVTVSS | low polyreactivity
QVQLVESGGGLVQAGGSLRLSCAASGRIFGYYAMGWYRQAPGKERELVARIRRRGGSTYYADSVKGRFTISRDNAKNTVYLQMNSLKPEDTAVYYCAAVYYPLVGKRYYYWGQGTQVTVSS | high polyreactivity
QVQLVESGGGLVQAGGSLRLSCAASGSIFGYYAMGWYRQAPGKERELVAAITWRGGTYYADSVKGRFTISRDNAKNTVYLQMNSLKPEDTAVYYCAAPRLATYQWYDYWGQGTQVTVSS | high polyreactivity
QVQLVESGGGLVQAGGSLRLSCAASGRTFYYYAMGWYRQAPGKERELVASISWSGGSTYYADSVKGRFTISRDNAKNTVYLQMNSLKPEDTAVYYCNAQYHTYRWLYAVYLSGDYWGQGTQVTVSS | low polyreactivity
QVQLVESGGGLVQAGGSLRLSCAASGIIFKYYAMGWYRQAPGKEREFVATISRRGGSTYYAYSVKGRFTISRDNAKNTVYLQMNSLKPEDTAVYYCATEYSPGREYKFNFWGQGTQVTVSS | high polyreactivity
QVQLVESGGGLVQAGGTLRLSCAATGRIFARYAMGWYRQAPGKERELVAAITVSGDNTYYADSVKGRFTISRYNAKNTVYLQMNSLKPEDTAVYYCAVRAVLLFGFFEYDYWGQGTQVTVSS | low polyreactivity
QDQLVDSGGGLVQAGGNLRLSCAASGRTFPPYSMGWDRQAPGKERELVAAISGSGASTYYADSEKGRFTISRDNAKNTVYLQMNCLKPEDSAVYYCARYRGYWGRYYGVDYGYWGQGTQVTVSS | high polyreactivity
QVQLVESGGGIVQAGGSLRLSCAASGRTFLGYAMGWYRQAPGKERELVAAISYSGSSTYYADSVKGRFTISRDNAKNTVYLQMNSLKPEDTAVYYCAAQFYFLFDYWGQGTQVTVSS | low polyreactivity
